From patent publication US11959134, “Methods of determining nucleic acid structural information” (Bionano Genomics, Inc.)

B1: E. coli genomic DNA containing M.BseCI sites (dsDNA)
DNA 1: ATCGAT
DNA 2: ATCGAT
B2: T7 phage genomic DNA containing three M.BseCI sites (dsDNA)
DNA 1: ATCGAT
DNA 2: ATCGAT

Legend:
[1] = molecular target: T1, M.BseCI DNA adenine methyltransferase (UniProt P43423 P43423:1-579); assay: labeling with Atto532AdoY, 22x enzyme excess over sites, 55 C, 5 h; labeled DNA assembled into single contig aligned to reference
Experimental: A solution (40 ul) of E. coli DNA (500 ng), M.BseCI (22× excess over DNA sites) and Atto532AdoY (40 uM) in 10 mM Tris-HCl, 10 mM EDTA, and 5 mM beta-mercaptoethanol, pH 7.4 were mixed with 4 uL NaOH (0.1M). The solution was incubated for 5 h at 55° C. Proteinase K (1 ul) was added and the solution incubated for 1 h at 37° C. The DNA was dialyzed against 1×TE buffer and stained with YOYO-1 to a final concentration of 3.5-5 ng/ul.
A freshly prepared solution (4 ul) of 4-nitrobenzoic alcohol (1.4 mM), Trolox (1.4 mM), protocatechuate-3,4-dioxygenase (0.36 uM), protocatechuic acid (50 ug) was mixed with stained E. coli DNA of Example 7, 1× flow buffer and Tris (25 mM) and NaCl (10 mM) were added. The sample was loaded onto an IrysChip™ and imaged using the Irys™ instrument.
The E. coli DNA of Examples 7 and 8 was assembled and compared to a reference genome. The labeled E. coli DNA assembled into a single contig (FIG. 5, right contig) and aligned to a reference contig sequence (FIG. 5, left contig).

[2] = molecular target: T1, M.BseCI DNA adenine methyltransferase; assay: sequence-specific covalent labeling with Atto532AdoY cofactor seen in nanochannels; 285 nM enzyme, 10 mM Tris-HCl, 10 mM EDTA, 5 mM beta-mercaptoethanol, pH 7.4, 55 C, 5 h
Experimental: A solution (40 ul) of 2 uL T7 DNA (500 ng/ul), M.BseCI (285 nM) and Atto532AdoY (40 uM) in 10 mM Tris-HCl, 10 mM EDTA, and 5 mM β-mercaptoethanol, pH 7.4 were mixed with 4 uL NaOH (0.1M). The solution was incubated for 5 h at 55° C. Proteinase K (1 ul) was added and the solution incubated for 1 h at 37° C. DNA was ethanol precipitated and redissolved in 1×TE buffer (10 ul).
For DNA staining of the T7 DNA labeled in Example 5, above, a solution (50 ul) of DNA (10 ng/ul), YOYO-1 (500 nM) in 1× flow buffer was incubated for 4 h at 4° C. Subsequently, a freshly prepared solution (4 ul) of 4-nitrobenzoic alcohol (1.4 mM), Trolox (1.4 mM), protocatechuate-3,4-dioxygenase (0.36 uM), protocatechuic acid (50 ug) was mixed with 10 uL of the stained DNA (above) and was loaded onto an IrysChip™ and imaged using the Irys™ instrument. FIG. 4 represents an example of imaged, labeled T7 DNA molecules.

T1 sequence (P43423 whole entry, one chain of several): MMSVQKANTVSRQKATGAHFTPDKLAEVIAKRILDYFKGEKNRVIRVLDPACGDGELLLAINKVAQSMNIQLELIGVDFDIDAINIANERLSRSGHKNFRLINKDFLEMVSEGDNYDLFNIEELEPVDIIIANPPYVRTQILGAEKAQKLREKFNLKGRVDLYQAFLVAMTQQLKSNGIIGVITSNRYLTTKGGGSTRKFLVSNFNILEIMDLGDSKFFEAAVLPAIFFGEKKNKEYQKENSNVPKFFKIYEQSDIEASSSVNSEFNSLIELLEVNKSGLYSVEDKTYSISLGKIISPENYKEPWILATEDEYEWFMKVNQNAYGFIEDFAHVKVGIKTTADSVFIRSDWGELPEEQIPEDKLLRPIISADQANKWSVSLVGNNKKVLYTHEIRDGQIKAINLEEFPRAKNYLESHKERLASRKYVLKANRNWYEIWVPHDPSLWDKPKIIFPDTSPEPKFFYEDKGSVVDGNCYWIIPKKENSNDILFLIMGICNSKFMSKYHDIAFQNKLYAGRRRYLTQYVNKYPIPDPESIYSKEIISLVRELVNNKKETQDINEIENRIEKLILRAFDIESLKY

| Binder | binding result [1] | binding result [2] |
| --- | --- | --- |
| B1 | binds |  |
| B2 |  | binds |
